The NTF2 design screens of Basanta et al. (2020)

Assay: protease stability score; higher = more stable; yeast display proteolysis, trypsin and chymotrypsin;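 note: relative to predicted unfolded state with 0 unfolded-like and 1 meaning tenfold more protease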

| Sequence | protease stability score |
| --- | --- |
| DEEHEDAVRIWEEFLEAVITGDWDRLKTLLDPNVRLHQGDFEIHGREKIVKTIHEMRIHIHDHRFRDSHFINGRVKLHVESDKEIIYGNKKTRLTVHVTVIIHKVNGVWLVHSVHVE | 0.986 |
| DEEHEDMDKYSKLLVEMLKTGDEHIFKILADPHVRIDINGREYHGWEDWVEVVRELRIHRLHFTHMEIQGDKLHLHLKSKFSFDGRVHEIEIRIHAKKVNGRWVIKEIRII | 2.29 |
| DEEHEELKKMVQHSLQLLMTGDEETIYHLLDPHAKVIINGVEYHGMSLSAKIMIKMARDLGVERFEVHLEHSRWFDGRVDVHISRRVNGQTEEVHINSKKINGRWHLKSIIFN | 1.06 |
| DEEHEETHRWVELFIRHHLTGDEDFIMKMLDPNTRWHIDGRTFHGMETVFDARKKERNKLGADHVRFTSFEIQGDFLHILGSIHIDGKELDEKIIIEVIDGRLNSILVTRR | 0.661 |
| DEEHEEVERMWERFIKYYLTGNEELFDHLADPNVRLIIGDKIAIGREEVRKLWERRRREIRIRHMNFHSVRWYDGRIDLEVEVNLDVNGREIKTEQRIHIKVINGRVKDVEIRVE | 0.743 |
| DEEHEEYHRMFRVVEHAYRTGDWKTLSDYMDPNAKQTVGNKEYHGREQVDESLKRLGIKVTDVEDSKEDHINGRLVVRLDQHLEVNGRRIKIHVLIIIIKINGRWIITENMYIFH | 0.141 |
| DEEHEEYMDWAIIHLHDWLTGDEDHHNELADPNDRLELVIGDKRIERIGREEVTKQLHEFRKHMRVHRIEIKTRNVYNGKAHLHGIMHFRVGDKKYDVETHIVIVIINGVLKQVKIEIR | 0.773 |
| DEEHEFLITMVKLVSTWFLTGDFETYIDLADPNTRQHVNGRYSVGREDAVKLEEEMLREIRIRDIRVKHIIRQGDKIELEFRFHMEVDGRVEDITVEVRIFLVNGRLHFLEIRFD | 0.743 |
| DEEHEFMRKMSEEFVHIWLTGDEERLIKLLDPNAKLNIDGVEHHGWKEVHRYLKELKEELGVDHFHVRRITIRYIDGVAISIVHYESHINGRHHELEIHNVVNKIDGRWHLQSIHIHFH | 2.16 |
| DEEHEHAKRAVKKTLTDYYTGDEDSISDLADPNVIQDVGDKEYHGREEFLRSMHKIIKWLGVDHIEVHRVHLINGRVFSRLRLEVDGREVELIIIILKINGRWHWHSMRIIHR | 1.03 |
| DEEHEHLHKWLDMLLYAHKTGDPEVILKNADPHVRSEVDGREVHGMEKFARDLYEMRIHRIHIKDVKTIGNKLDVDGRLDGEFNGKRVDSDVHLHLVVIDGRLHSLHIKHR | 0.558 |
| DEEHEHLKELARLILKWWYTGDEQHMLELADPNVRSHVNGVHLVGREEMMKVWVEVLEFLGADHVEDKRSSIQGDKTILHTSHHVNGKEIEVDVDIRIVDGKDHTLEFRIK | 1.44 |
| DEEHEHQHEFAQIIMEMWKTGDWKTMFKLADPNARTIFEGRRLHGRELIWEFLFRLLKKLGVDHEKDRHSHNIGDKIHIHGEEEIGDKKVEVHIHIVIFNGRVKELEIRRREL | 0.511 |
| DEEHEIIRKMFEIVKDMFKTGDEEITERLLDPNARIDIDGRDIVGRESVLWLFSQFKNLRHRDDRIDYQGNFVIVRGKLDINGRRVEIEIVAAKVDGRWILHSIKMQ | 1.43 |
| DEEHEINRRIAEWWLHSVKTGDEESIENNADPNTRIVVNGVHFHGMEESHKWLHEFLRRFKNATLEIHSMEVINGVTHIHGTLVQGDKRIRVHIHVHVINGRIHTISHEHR | 1.27 |
| DEEHEIVELIMRIFLHAVLTGDWELIEKLADPNVRIIIRINGQEIHFHGREHLRHRFEHLRIDRMEIHDYKNVGDWLDIDGRENGNFNGRKHETRVHIHIRVINGKLHELRVTYR | 1.68 |
| DEEHEKLYQDLEYWVKMVRTGDEDSHLEYADPDVRLDVNGQQFIGREEFTRFFRTLSRELGLDNINFRIKDIRNVGDKIDIDGHREINGRRVRIILVAWKFNGRWYLHEERIR | 1.39 |
| DEEHELLEHWLRLFEEAFSTGDWRIMARLIDPNARLEIGEKDHHGREELIKFMLRVDHIDDFRLHEKDRTEIDGRLRMNGNNEVQGTVNGQKRNITIDIHIVVVKVDGRWFVERIRIR | 1.3 |
| DEEHELTRKVLTEMWEIFMTGDWKRWHELLDPHVRFVYVQGEFEDVHHGREEVKRLFDKLLKDLGFKHSELTDTRLVGNKAVIDGTIHVGDKIYDFHLNVLVVNGKVKTIEVEIREK | 1.94 |
| DEEHEMAKRASEKFVKDWVTGNFEVLRENLDPHVRLDINGVKVHGRELVWHYIAKRLRFMGVDHTEMEVHHREVQGNKLITDMEERIHVGDYHEERRVVLISQKINGKWLVKSIHEE | 1.56 |
| DEEHEMIQTHLRLFHEALLTGDEEELHRLLDPNVRVDIGDKHLHGREVVIHWMRQIRVKHLDLDLDHERSVNGRVDIKGTLRSDVIINGQRHKTSHTLHFHATKINGRWFIKEYIVD | 2.06 |
| DEEHEQLERLARDYMHSTETGDEESIRRFFDPHTRYDIDGKESHGWEMIKHWMEEWRIDSVTIHSIHRINGVAHIDVTVHGEIGDKQTTFRVIIDLVIVNGKVHEIRIIFE | -0.086 |
| DEEHEVLRRMVERIREMEKTGDWERYATMADPNTRVDVNGVELHGMENVAFWFWLHLYRHGIEIKDIRVRDIKVQGEKYQEDGELYGHINGQTTILEVHLEITFVNGRIHSEKISIK | 1.25 |
| DEEHEWAQLVIQLFFEALHTGDEKTLHELMDPEVKVNVDGRELHGREEVMEWFEELIRQYKNAKIHLHIHRVEYVGNKVIIRGELHFRYGDKEERIDRILHVLKVDGRWLIREIEHR | 1.51 |
| DEEHEWAQRIIEYLSKNEKTGDEDSARELADPNMRFEIDGVEIVGMETWVRRFLELRVEDLTMDVEHIHVQGNFVHIQTRLELHGHINGRRTRYTTTMRLFVLKINGKWIITHVKYE | 1.45 |

| Sequence | protease stability score |
| --- | --- |
| DEEHEWMHIMMELLLRAFETGDPDLFEHLADPNTRLQIGDKTIHGRTKVSTWLHREIRRADHLEIRLREYDYQGDKLEMKTELIIQQGDKQVQLETRVIIIKINGRWFLESIEIN | 1.23 |
| DEEHHDARRIIEEFITLLKTGDEENLDEYLDPNVRIEFNGRDLHGMEWFLHFLREIRFRDDDHKRIQVKVINGQVHILIKMHVDGVWDGRRKISDVHLHFTVVKVDGRWRFTSIHVHIE | 1.35 |
| DEEHHDLQEFFERLKRHWETGDWKEITKNFDPNVKERYGDFEVHGREEAIRKAKEMRYNDMDIRHRRVIDGRAYLHTEMDGNFDGRERRFEVEMIITKIDGVWRIKHVTFK | 1.06 |
| DEEHHELHKMFEEMINKWITGDWEYIVKLLDPHVKLEVGDKRHHGWKQYVLFLEEFMREFKNATIKIHDVTHVDGVVIINMKFHFNGKDIDTTLYLHIVNGRLHDERIEVE | 1.74 |
| DEEHHLAKELVRLLQEALSTGDEDEVKRLIDPDYRLIIGEFIFHGREDLERWLHHARVSVKDSHLRHVKVQGDKVEINGERNLIVIIDGKKIERKHRLHLIIIKVDGRWFMESEKYD | 1.01 |
| DEEHHNAREMLKLFLDFMQTGDWESHLEMADPNVKVIIDGQEFIGRESSERLIREIRIKRHHLEEERIEVQGDKAIVRLRGRRDGNVNGVETETEVHIRIHFKKIDGRWVMTSVHIEVV | 1.75 |
| DEEHKELRRAWEQLIHDIKTGDEESFKRLADPDVQVRVGDKVEHGREATERWLRQVDHIKHFEEKRIHIYDGRVELKGRVTGVINGRELNTEIDFEIVYIDGKLHRIRIHFR | 1.09 |
| DEEHKEREDVAREIITLLLTGDEEIWLSMMDPHTRININGKYAIGRENIEEIIKDLLRRIPNIRIIMQDMKIQGDKVTIHGIHNVNGREHEWRVHIISVNGRIKSIEVRIH | 1.47 |
| DEEHKETEDIAKYFWERFLTGDWKTFKEFADPHVKIDVDGVEHIGREEASKLMRDWDRRFKNVRHTERHHDVIDGKFELHGESNINGVHIKLDVRIVIVDGRLHSVHVEIDRR | 1.26 |
| DEEHKEVREHIETSIQALRTGDWELLSKRMDPHVRVIVGDKHLHGREEAHKMLEEWFKRMGIDHFHIKSIEIQGDKTDVEGHMYFNGVSRDTRLYEVWVNGRLKSLTIEMR | 0.626 |
| DEEHKFQHDISIFFMKLIETGDEDTLIDMADPNARSEINGKEVHGMEDAYKWWIDFLRQMGIKHLHVETFHVVNGQTKVHSRVHVGDKEFEVEIRLIIINGRLHEIEIIVRTR | 1.21 |
| DEEHKHLREILRLMIEWLRTGDWEKIERNADPTTKMDYGEFKTHGREEYYRALMILIRHLGVDHITLHDFTFIDGKIYLDLIIHVNGQHERVTLEMHFVDGVIKRHHVREK | 0.566 |
| DEEHKIIRDFADEFWHWHLTGNFEEIAKNMDPNVRYEIRIGDKVILHIGMEDVERYLREEIHKFKNLTEDLESKHVVGNKLHLDARLNWNGKTVDIHIEIVVVNGRFKTVTIHIR | 1.36 |
| DEEHKLAEHYLRIWIHALITGDFHKILHLMDPNVRNEVGDKEVHGREEWEKFLKRVKNVVIEHVELDHLLVVDGRVHIRVTLHMSYGDKTEDHDIHVLMHKVDGRWYIKSIHVK | 2.43 |
| DEEHKLQEDFLKALIRSILTGDWEFWKRLLDPHVRMNINGVYVHGRDEAANILIKDLERRGMEIKTITIEDRRHYDGVLEVKLRIQTTIDGQEHETSLEFHVKKYDGRWIIEHITVR | 2.19 |
| DEEHKTSYKALEQLIRVLRTGDERLMSELADPHVRMDFDGRRHHGRESMKREFLELGIDHVHLDRWNLIGNKVLSDGHMRFDGRSMRVEIIAYKVDGRWVLEEVRFE | 0.03 |
| DEEHNHFERLTRWFEHVWRTGNEEFFRELADPNARMRINGQEYVGREELVRTLHEWLKILGAKHHRKKDEEIQGEKVILIGEVDIDGRTLRHHVHFRIINGRLHSLEVEVK | 1.3 |
| DEEHNLSEEAMRHFFETVRTGDEELIYRLLDPNARVQINGKEHHGREDVWEFLWRNYMRADHVEVKVHHVEVQGEKVIIDLRLHVTINGKDLEIRLVLIIHKYNGRWHITELRIL | 0.555 |
| DEEHQHSLARTLATALRTGDPEKMKDLADKDVKVVVGDKHIKGRKDAKKWAKDWRDRYDHAQVDDVNVQGENVRIVMNVEVDGHNVVVVMTAIIDGDQVKNVKVTARNEEQEKKMKK | 0.252 |
| DEEHQSLRHIAEILLESWETGDFERVWKFADPHTRVDFNGREKHGMHHVHEMFHILGIDHIELRHMEVINGRINSDGHVEVNGQRHRMHLTIFVFDGRLTEVRFDYE | 2 |
| DEEHRDFKHLIKIFDDSVETGDEETFHKLLDPDVRIRVGDWQLVGREEARRVFQQIRIIIHSNRIHDVKVINGKIHADTHVDFRIEVGDKTVRERSRTIIYLDKVNGVWTIHSIEFK | 1.08 |
| DEEHRDLEHFMEIYEDALRTGDEKIIKFLLDPHVRFKQGNKQEHGWEAVYRYLHRFDVVKDVRFRIRSLEIQGDFLIVHYEVRYRGEINGQEHHVTIEYVIIVKKIDGKWLVHEVSIL | 1.62 |
| DEEHRDSEEMTRKFLHNFITGNEHILEDLLDPHVRTDVDGREFIGWELAFKAFREFLERLGFDHIRHRDMKLHVVGNKVTSVITNNIQVGDKEHELRIILINRKIDGKWSVTEVRIHVK | 1.25 |
| DEEHREAREAVEDDLRELITGNWDMLRRNLDPRMRLNIDGQDIHGRESVHKRWVELMEELGIDHLELHRVDVIDGRIHTDGHERVDGKHIKVLIVAVKINGRWIIKRLHVH | 0.675 |
| DEEHREMRDVLDELLEAFHTGDEHSLNRYADPHARHHVNGKEYHGRELMVKIWMDLGIDHVHLEEIHLQGEKLHMDTRVTVNGRTIKVTIIILKINGRWKLTHVEIK | 0.958 |
